# From patent publication US20230382948A1, “DELIVERY OF ENDOTHELIAL CELL-LADEN MICROGEL ELICITS ANGIOGENESIS IN SELF-ASSEMBLING ULTRASHORT PEPTIDE HYDROGELS” (KING ABDULLAH UNIVERSITY OF SCIENCE AND TECHNOLOGY, priority 2020, published 2023)
# Assays:
# [1] = Microgel fabrication by flow-focusing microfluidics, microgel imaging (diameter, roundness); assay type: physicochemical; settings: for Microgel average diameter: SUP solution 1.5 wt %, oil with Span 80 (2%) and sodium chloride
# Experimental: Since the microgels are intended to be cell carriers, the fabrication materials were sterilized before use when possible and handled aseptically inside a biosafety cabinet (BSC) to reduce contamination risk. Milli-Q® water and hexadecane were sterilized by autoclaving at 121° C. for 20 min. Light mineral oil was sterilized by dry heating at 160° C. for 1 h. Peptide powder and sodium chloride were sterilized by UV irradiation (GE® germicidal lamp 30 W) for 30 min inside BSC. Once sterile, the peptide powder was dissolved to 27.1 mM (15 mg/mL) in sterile Milli-Q® water by vortexing for 5 min and incubated at room temperature (22° C.) for 1 h (preassembly). Span 80 was dissolved to 2% (v/v) into light mineral oil and hexadecane, independently. Sodium chloride was added to the light mineral oil+Span 80 mix and shaked to disperse the sodium chloride crystals. The peptide solution was loaded in a 1 mL syringe, while the light mineral oil with Span 80 2% (v/v) and sodium chloride 3 mg/mL were loaded in a 3 mL syringe. Both syringes were connected with the microfluidic system, and both solutions were brought to the droplet generator point by pressing the syringes manually. Then, both syringes were inserted into the pumps, and the flow rate was set at 10 μL/min for continuous phase (light mineral oil with Span 80 and sodium chloride) and 1 μL/min for dispersed phase (peptide solution). Droplet generation was monitored by on-site bright-field microscopy, and once it was stable and continuous, the droplets were collected in a tube containing light mineral oil with Span 80 2% (v/v). To confirm peptide droplet gelation, FluoSpheres® or QD were sometimes incorporated into the peptide solution during the preassembly incubation. Microgels were isolated from oil adding the same volume of hexadecane containing Span 80 (2% v/v) and centrifuged at 10 g for 5 min, and the oil layer was discarded. Microgels were washed with hexadecane plus Span 80 (2% v/v) two more times, discarding the hexadecane layer. A volume of DPBS containing Tween 20 (10% v/v) was gently added on the microgels through the collection tube walls and removed after 5 min. DPBS—Tween 20 washing was repeated 2 more times, decreasing the Tween 20 content to 1% v/v and 0.1% v/v sequentially. Finally, 250μL of DPBS was added on the microgels to keep them soaked, and they were kept on a shelf (22° C.) until further use. The microgel shape and size were checked by confocal laser scanning microscopy (CLSM).
# Microgel imaging was done at each condition and time point using a CLSM Zeiss® 710 or 880 by tile scanning with 15% overlapping and online stitching to capture as many microgels as possible from the dish. The Feret diameter and roundness of each microgel was calculated using ImageJ software by manually drawing up to 59 microgel contours per condition. All statistical data analysis and microgel descriptor plotting were conducted in Origin software. To assess the effect of the treatments on the microgel diameter and roundness, a Kruskal—Wallis test with Posthoc test pairwise Mann—Whitney U tests was applied.
# [2] = Rheological characterization of SUP bulk hydrogels; assay type: physicochemical
# Experimental: The mechanical stiffness of the peptide hydrogels was analyzed using a TA Ares-G2 Rheometer equipped with parallel-plate geometries of 8 mm diameter at room temperature. The sample gap between the upper and the lower geometries was set at 1.8 mm. The hydrogels were prepared from 135 μL of peptide solution that was mixed with 15 μL of 10×PBS in an 8 mm i.d. poly(methyl methacrylate) (PMMA) casting ring and left for 1 day before measurement. The rings were kept inside Petri dishes at room temperature with water surrounding them and tightly sealed to avoid dehydration. To control the accuracy of the measurements, six replicates for each peptide hydrogel were prepared. The stiffness was analyzed through three successive tests, which were time sweep, frequency sweep, and amplitude sweep. Time sweep was first performed for 5 min with an angular frequency and a strain of 1 rad/s and 0.1%, respectively. A frequency sweep was subsequently performed on the sample for a range of angular frequency of 0.1-100 rad/s with the same strain of 0.1%. The tests were completed with the amplitude sweep by applying a gradual increase of strain […] at 1 rad/s angular frequency.
# [3] = after extraction to the aqueous phase (PBS)
substance,measurement,setting,value
"Ac-Ile-Val-Phe-Lys-NH2 (Ac-IVFK-NH2) [self-assembling ultrashort tetrapeptide, forms hydrogels and microgels]",Microgel swelling on extraction from the oil phase to the aqueous phase,[1],50 μm
same,Minimum concentration with many intact microgels after isolation in the aqueous phase,[1],0.8 wt %
same,Microgel average diameter,[1],300 μm
same,"Microgel roundness, average",[1]; [3],0.88
same,"Microgel roundness, average",[1]; in oil,0.98
same,"Linear viscoelastic (LVE) region of hydrogel, comparison","[2]; amplitude sweep, IVFK versus IVZK, FIGS. 18 and 19",wider
"Ac-Ile-Val-Cha-Lys-NH2 (IVXK; HELM PEPTIDE1{[ac].I.V.[Cha].K.[am]}$$$$V2.0; SMILES CC[C@H](C)[C@H](NC(C)=O)C(=O)N[C@H](C(=O)N[C@@H](CC1CCCCC1)C(=O)N[C@@H](CCCCN)C(N)=O)C(C)C) [IVZK, self-assembling ultrashort tetrapeptide, Z = cyclohexylalanine, forms hydrogels and microgels]",Microgel swelling on extraction from the oil phase to the aqueous phase,[1],not
same,Microgel average diameter,[1],350 μm
same,"Microgel roundness, average",[1]; [3],0.88
same,"Microgel roundness, average",[1]; in oil,0.98
same,"Mechanical stiffness of hydrogel, comparison","[2]; IVZK versus IVFK hydrogels, FIG. 15",higher stiffness
